Assay results reported in patent publication US20250320281A1.

Columns and labels:
Assay in all cases: cell-based or functional assay
[1] = target: HIV-1 Env of pseudovirus MGRM-AG-012 (clade CRF_AG) (HIV-1)
[2] = target: HIV-1 Env of isolate MGRM-D-021 (clade D pseudovirus) (HIV-1)
[3] = target: HIV-1 Env of isolate LAVI_C3 (HIV-1)
[4] = target: HIV-1 92UG005 envelope glycoprotein (Env) on pseudovirus (HIV-1)
[5] = target: HIV-1 Env of pseudovirus MGRM-G-028 (HIV-1, clade G isolate MGRM-G-028)
[6] = target: HIV-1 Env of isolate 97ZA012 (clade C) (HIV-1 isolate 97ZA012)
[7] = target: HIV-1 Env of pseudovirus MGRM-Chronic-B-018 (HIV-1)
[8] = target: HIV-1 94UG114 envelope glycoprotein (Env) on pseudovirus (HIV-1 (isolate 94UG114, clade D))
[9] = target: HIV-1 envelope glycoprotein (Env) of isolate 92UG037, clade A (HIV-1)
[10] = target: HIV-1 Env of isolate MGRM-Chronic-B-002, clade B, on pseudovirus (HIV-1)
[11] = target: HIV-1 Env of isolate PVO.4 (Acute), clade B, on pseudovirus (HIV-1)
[12] = target: HIV-1 IAVI-C3 envelope glycoprotein (Env) on pseudovirus (HIV-1)
[13] = target: HIV-1 Env of pseudovirus MGRM-F1-008 (HIV-1)
[14] = target: HIV-1 Env of isolate APV_13, clade B, on pseudovirus (HIV-1)
[15] = target: HIV-1 envelope glycoprotein (Env) of isolate 93RW029, clade A (HIV-1)
[16] = target: HIV-1 Env of isolate TRO.11 (Acute), clade B, on pseudovirus (HIV-1)
[17] = target: HIV-1 Env of isolate APV_17 (subtype B pseudovirus) (HIV-1)
[18] = target: HIV-1 Env of isolate MGRM-AE-007 (HIV-1)
[19] = target: HIV-1 Env of isolate MGRM-Chronic-B-017 (subtype B pseudovirus) (HIV-1)
[20] = target: HIV-1 Env of isolate MGRM-F1-006 (pseudovirus) (HIV-1)
[21] = target: HIV-1 Env of isolate MGRM-D-016 (pseudovirus) (HIV-1)
[22] = target: HIV-1 Env of isolate MGRM-D-026 (pseudovirus) (HIV-1)
[23] = target: HIV-1 Env of isolate MGRM-Chronic-B-024 (subtype B pseudovirus) (HIV-1)
[24] = target: HIV-1 Env of isolate MGRM-D-001 (clade D), on pseudovirus (HIV-1)
[25] = target: HIV-1 Env of isolate MGRM-D-001 (pseudovirus) (HIV-1)

1443_C16 (PG16) (TCN-116) (antibody), sequence (VH): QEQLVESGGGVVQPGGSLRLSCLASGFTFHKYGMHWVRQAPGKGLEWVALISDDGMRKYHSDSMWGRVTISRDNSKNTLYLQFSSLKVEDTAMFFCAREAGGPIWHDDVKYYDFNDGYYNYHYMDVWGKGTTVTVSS
1443_C16 (PG16) (TCN-116) (antibody), sequence (VL): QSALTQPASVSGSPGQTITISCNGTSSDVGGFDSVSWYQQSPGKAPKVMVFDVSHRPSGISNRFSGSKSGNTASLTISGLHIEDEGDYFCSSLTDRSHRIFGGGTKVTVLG

## 2F5 (antibody)
[1]
  IC50: 0.33 µg/mL
[2]
  IC50 (µg/ml), pseudovirus neutralization: > 50 µg/mL
[3]
  IC50: > 50 µg/mL
[4]
  IC50, pseudovirus neutralization: 11.8 µg/mL
[5]
  IC50 (µg/ml), pseudovirus neutralization: 2.24 µg/mL
[6]
  IC50 (µg/ml), pseudovirus neutralization: > 50 µg/mL
[7]
  IC50 (µg/ml), pseudovirus neutralization: 10.8 µg/mL
[8]
  IC50 (µg/ml), pseudovirus neutralization: > 50 µg/mL
[9]
  IC50 (µg/ml), pseudovirus neutralization: 3.24 µg/mL
[10]
  IC50 (µg/ml), pseudovirus neutralization: 1.25 µg/mL
[11]
  IC50 (µg/ml), pseudovirus neutralization: > 50 µg/mL
[12]
  IC50, pseudovirus neutralization: > 50 µg/mL
[13]
  IC50 (µg/ml), pseudovirus neutralization: 1.61 µg/mL
[14]
  IC50 (µg/ml), pseudovirus neutralization: 3.81 µg/mL
[15]
  IC50 (µg/ml), pseudovirus neutralization: > 50 µg/mL
[16]
  IC50 (µg/ml), pseudovirus neutralization: > 50 µg/mL

## 2G12 (antibody)
[1]
  IC50: 1.94 µg/mL
[2]
  IC50 (µg/ml), pseudovirus neutralization: 23 µg/mL
[3]
  IC50: > 50 µg/mL
[4]
  IC50, pseudovirus neutralization: > 50 µg/mL
[5]
  IC50 (µg/ml), pseudovirus neutralization: 28.2 µg/mL
[6]
  IC50 (µg/ml), pseudovirus neutralization: > 50 µg/mL
[7]
  IC50 (µg/ml), pseudovirus neutralization: > 50 µg/mL
[8]
  IC50 (µg/ml), pseudovirus neutralization: 13.9 µg/mL
[9]
  IC50 (µg/ml), pseudovirus neutralization: 45.2 µg/mL
[10]
  IC50 (µg/ml), pseudovirus neutralization: > 50 µg/mL
[11]
  IC50 (µg/ml), pseudovirus neutralization: 0.8 µg/mL
[12]
  IC50, pseudovirus neutralization: > 50 µg/mL
[13]
  IC50 (µg/ml), pseudovirus neutralization: > 50 µg/mL
[14]
  IC50 (µg/ml), pseudovirus neutralization: 9.24 µg/mL
[15]
  IC50 (µg/ml), pseudovirus neutralization: > 50 µg/mL
[16]
  IC50 (µg/ml), pseudovirus neutralization: 0.29 µg/mL

## 4E10 (antibody)
[1]
  IC50: 0.86 µg/mL
[2]
  IC50 (µg/ml), pseudovirus neutralization: 13.3 µg/mL
[3]
  IC50: 2.85 µg/mL
[4]
  IC50, pseudovirus neutralization: 8.86 µg/mL
[5]
  IC50 (µg/ml), pseudovirus neutralization: 6.32 µg/mL
[6]
  IC50 (µg/ml), pseudovirus neutralization: 4.7 µg/mL
[7]
  IC50 (µg/ml), pseudovirus neutralization: 23.2 µg/mL
[8]
  IC50 (µg/ml), pseudovirus neutralization: 9.72 µg/mL
[9]
  IC50 (µg/ml), pseudovirus neutralization: 8.84 µg/mL
[10]
  IC50 (µg/ml), pseudovirus neutralization: 2.19 µg/mL
[11]
  IC50 (µg/ml), pseudovirus neutralization: 18.3 µg/mL
[12]
  IC50, pseudovirus neutralization: 5 µg/mL
[13]
  IC50 (µg/ml), pseudovirus neutralization: 2.75 µg/mL
[14]
  IC50 (µg/ml), pseudovirus neutralization: 7.33 µg/mL
[15]
  IC50 (µg/ml), pseudovirus neutralization: 15.5 µg/mL
[16]
  IC50 (µg/ml), pseudovirus neutralization: 1.39 µg/mL

## 1443_C16 (PG16) (TCN-116) (antibody)
[1]
  IC50: 25.1 µg/mL
[2]
  IC50 (µg/ml), pseudovirus neutralization: > 50 µg/mL
[3]
  IC50: 9.55 µg/mL
[4]
  IC50, pseudovirus neutralization: > 50 µg/mL
[5]
  IC50 (µg/ml), pseudovirus neutralization: 3.09 µg/mL
[6]
  IC50 (µg/ml), pseudovirus neutralization: 2.55 µg/mL
[7]
  IC50 (µg/ml), pseudovirus neutralization: 0.7 µg/mL
[8]
  IC50 (µg/ml), pseudovirus neutralization: > 50 µg/mL
[9]
  IC50 (µg/ml), pseudovirus neutralization: 0.01 µg/mL
[10]
  IC50 (µg/ml), pseudovirus neutralization: 3.06 µg/mL
[11]
  IC50 (µg/ml), pseudovirus neutralization: 5.43 µg/mL
[12]
  IC50, pseudovirus neutralization: 14.8 µg/mL
[13]
  IC50 (µg/ml), pseudovirus neutralization: > 50 µg/mL
[14]
  IC50 (µg/ml), pseudovirus neutralization: > 50 µg/mL
[15]
  IC50 (µg/ml), pseudovirus neutralization: 3.83 µg/mL
[16]
  IC50 (µg/ml), pseudovirus neutralization: 0.22 µg/mL

## 1495_C14 (PGC14) (antibody)
[1]
  IC50: > 50 µg/mL
[2]
  IC50 (µg/ml), pseudovirus neutralization: > 50 µg/mL
[3]
  IC50: 12 µg/mL
[4]
  IC50, pseudovirus neutralization: > 50 µg/mL
[5]
  IC50 (µg/ml), pseudovirus neutralization: > 50 µg/mL
[6]
  IC50 (µg/ml), pseudovirus neutralization: > 50 µg/mL
[7]
  IC50 (µg/ml), pseudovirus neutralization: > 50 µg/mL
[8]
  IC50 (µg/ml), pseudovirus neutralization: > 50 µg/mL
[9]
  IC50 (µg/ml), pseudovirus neutralization: > 50 µg/mL
[10]
  IC50 (µg/ml), pseudovirus neutralization: > 50 µg/mL
[11]
  IC50 (µg/ml), pseudovirus neutralization: > 50 µg/mL
[12]
  IC50, pseudovirus neutralization: > 50 µg/mL
[13]
  IC50 (µg/ml), pseudovirus neutralization: > 50 µg/mL
[14]
  IC50 (µg/ml), pseudovirus neutralization: > 50 µg/mL
[15]
  IC50 (µg/ml), pseudovirus neutralization: 42 µg/mL
[16]
  IC50 (µg/ml), pseudovirus neutralization: > 50 µg/mL

## 4858_P08 (PGT-123) (antibody)
[17]
  IC50 (µg/mL), pseudovirus neutralization: 0.114 µg/mL
[18]
  IC50: > 50 µg/mL
[19]
  IC50 (µg/mL), pseudovirus neutralization: > 50 µg/mL
[20]
  IC50, pseudovirus neutralization: 6.89 µg/mL
[4]
  neutralization IC50: 2.49 µg/mL
  neutralization IC80: > 10 µg/mL
  neutralization IC90: > 10 µg/mL
  neutralization IC95: > 10 µg/mL
[21]
  IC50, pseudovirus neutralization: > 50 µg/mL
[22]
  IC50, pseudovirus neutralization: > 50 µg/mL
[23]
  IC50 (µg/mL), pseudovirus neutralization: > 50 µg/mL
[24]
  IC50, pseudovirus neutralization: 0.215 µg/mL
[25]
  IC50, pseudovirus neutralization: 0.147 µg/mL

## 5141_B17 (PGT-126) (antibody)
[17]
  IC50 (µg/mL), pseudovirus neutralization: 0.353 µg/mL
[18]
  IC50: > 50 µg/mL
[19]
  IC50 (µg/mL), pseudovirus neutralization: > 50 µg/mL
[20]
  IC50, pseudovirus neutralization: 0.078 µg/mL
[4]
  IC50, pseudovirus neutralization: 0.0181 µg/mL
  IC80 (pseudovirus neutralization): 0.145 µg/mL
  IC90 (pseudovirus neutralization): 0.553 µg/mL
  IC95 (pseudovirus neutralization): 2.45 µg/mL
[21]
  IC50, pseudovirus neutralization: > 50 µg/mL
[22]
  IC50, pseudovirus neutralization: > 50 µg/mL
[23]
  IC50 (µg/mL), pseudovirus neutralization: > 50 µg/mL
[24]
  IC50, pseudovirus neutralization: 0.0639 µg/mL
[25]
  IC50, pseudovirus neutralization: 0.084 µg/mL

## b12 (antibody)
[1]
  IC50: 10.4 µg/mL
[2]
  IC50 (µg/ml), pseudovirus neutralization: 5.23 µg/mL
[3]
  IC50: 0.94 µg/mL
[4]
  IC50, pseudovirus neutralization: > 50 µg/mL
[5]
  IC50 (µg/ml), pseudovirus neutralization: > 50 µg/mL
[6]
  IC50 (µg/ml), pseudovirus neutralization: > 50 µg/mL
[7]
  IC50 (µg/ml), pseudovirus neutralization: 0.66 µg/mL
[8]
  IC50 (µg/ml), pseudovirus neutralization: > 50 µg/mL
[9]
  IC50 (µg/ml), pseudovirus neutralization: > 50 µg/mL
[10]
  IC50 (µg/ml), pseudovirus neutralization: 0.86 µg/mL
[11]
  IC50 (µg/ml), pseudovirus neutralization: > 50 µg/mL
[12]
  IC50, pseudovirus neutralization: 5 µg/mL
[13]
  IC50 (µg/ml), pseudovirus neutralization: > 50 µg/mL
[14]
  IC50 (µg/ml), pseudovirus neutralization: > 50 µg/mL
[15]
  IC50 (µg/ml), pseudovirus neutralization: > 50 µg/mL
[16]
  IC50 (µg/ml), pseudovirus neutralization: > 50 µg/mL
